{"source": "paper PMC4514111", "binders": {"B1": {"name": "NS (MOR poly(C) sequence) (dsDNA)", "DNA 1": "CTTCTGCTCCCCCCCCCCCTACCC", "DNA 2": "GGGTAGGGGGGGGGGGAGCAGAAG"}}, "target": "PARP-1 (recombinant, unmodified) (UniProt P09874 1-1014)", "sequence (P09874 whole entry)": "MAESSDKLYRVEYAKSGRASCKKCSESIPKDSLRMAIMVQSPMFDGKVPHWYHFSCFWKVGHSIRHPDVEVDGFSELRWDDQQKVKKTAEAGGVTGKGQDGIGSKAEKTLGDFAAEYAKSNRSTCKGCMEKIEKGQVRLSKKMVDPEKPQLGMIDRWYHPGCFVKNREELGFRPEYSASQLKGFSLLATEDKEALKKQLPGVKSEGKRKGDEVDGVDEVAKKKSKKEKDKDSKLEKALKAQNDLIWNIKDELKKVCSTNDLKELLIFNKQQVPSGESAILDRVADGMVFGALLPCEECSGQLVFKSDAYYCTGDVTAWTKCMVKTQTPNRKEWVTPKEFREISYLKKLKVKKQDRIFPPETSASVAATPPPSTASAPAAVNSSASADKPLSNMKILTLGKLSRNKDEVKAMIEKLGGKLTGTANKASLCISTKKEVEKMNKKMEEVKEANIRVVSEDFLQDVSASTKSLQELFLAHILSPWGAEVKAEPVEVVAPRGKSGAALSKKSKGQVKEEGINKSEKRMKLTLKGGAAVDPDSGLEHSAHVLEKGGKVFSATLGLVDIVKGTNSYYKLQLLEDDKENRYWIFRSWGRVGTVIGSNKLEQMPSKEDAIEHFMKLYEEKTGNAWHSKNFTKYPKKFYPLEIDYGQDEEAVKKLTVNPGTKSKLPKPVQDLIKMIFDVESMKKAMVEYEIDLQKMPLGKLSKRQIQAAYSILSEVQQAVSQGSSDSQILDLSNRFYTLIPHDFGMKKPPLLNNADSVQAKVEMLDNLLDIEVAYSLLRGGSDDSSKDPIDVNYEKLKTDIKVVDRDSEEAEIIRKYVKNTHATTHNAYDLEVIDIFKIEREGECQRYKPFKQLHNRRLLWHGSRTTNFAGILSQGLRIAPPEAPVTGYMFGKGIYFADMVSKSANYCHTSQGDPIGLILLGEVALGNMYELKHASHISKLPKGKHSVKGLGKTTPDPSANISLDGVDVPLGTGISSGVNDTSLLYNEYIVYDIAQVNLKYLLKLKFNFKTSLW", "experiment": "EMSA", "data": [{"binder": "B1", "values": [{"measurement": "binding result", "value": "binds"}]}]}
